Reference: US20100168443A1, “Ethoid-Containing Compounds, Methods for Preparing Ethoid-Containing Compounds, and Methods of Use” (UNIVERSITY OF VIRGINIA PATENT FOUNDATION, priority 2006, published 2010)
Where a SMILES comes first, the peptide text is derived from it. Where no end group is shown, it is not given here. [ ]: non-standard residue; d: D form. NMeF = CN[C@@H](Cc1ccccc1)C(=O)O; Nle = CCCC[C@H](N)C(=O)O

Experiments:
[1] = target: T1, Tachykinin NK2 HUMAN receptor (Homo sapiens, UniProt P21452); conditions: radioligand; Human recombinant (CHO cells); cited from earlier work
T1 construct: host or cells: CHO
T1 sequence (P21452 1-398): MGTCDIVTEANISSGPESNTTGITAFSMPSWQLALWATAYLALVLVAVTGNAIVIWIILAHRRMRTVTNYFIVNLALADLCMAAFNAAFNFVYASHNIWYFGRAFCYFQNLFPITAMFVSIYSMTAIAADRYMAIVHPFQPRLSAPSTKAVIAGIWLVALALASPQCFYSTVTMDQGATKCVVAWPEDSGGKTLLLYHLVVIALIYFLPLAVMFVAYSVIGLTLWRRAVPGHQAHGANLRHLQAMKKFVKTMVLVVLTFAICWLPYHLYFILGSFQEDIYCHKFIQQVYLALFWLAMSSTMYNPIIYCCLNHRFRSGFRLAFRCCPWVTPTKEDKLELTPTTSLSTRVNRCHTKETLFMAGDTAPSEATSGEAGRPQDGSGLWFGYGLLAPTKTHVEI

DPP-4 peptidase = target: T2, DPP-4 peptidase (Homo sapiens, UniProt P27487); assay: DPP4 enzyme stability assay; assay type: in vitro ADME; conditions: 1 mU DPP-4, tris buffer pH 7.5, 37° C, up to 8 hours incubation
T2 construct: purchased Sigma-Aldrich
T2 sequence (P27487 whole entry): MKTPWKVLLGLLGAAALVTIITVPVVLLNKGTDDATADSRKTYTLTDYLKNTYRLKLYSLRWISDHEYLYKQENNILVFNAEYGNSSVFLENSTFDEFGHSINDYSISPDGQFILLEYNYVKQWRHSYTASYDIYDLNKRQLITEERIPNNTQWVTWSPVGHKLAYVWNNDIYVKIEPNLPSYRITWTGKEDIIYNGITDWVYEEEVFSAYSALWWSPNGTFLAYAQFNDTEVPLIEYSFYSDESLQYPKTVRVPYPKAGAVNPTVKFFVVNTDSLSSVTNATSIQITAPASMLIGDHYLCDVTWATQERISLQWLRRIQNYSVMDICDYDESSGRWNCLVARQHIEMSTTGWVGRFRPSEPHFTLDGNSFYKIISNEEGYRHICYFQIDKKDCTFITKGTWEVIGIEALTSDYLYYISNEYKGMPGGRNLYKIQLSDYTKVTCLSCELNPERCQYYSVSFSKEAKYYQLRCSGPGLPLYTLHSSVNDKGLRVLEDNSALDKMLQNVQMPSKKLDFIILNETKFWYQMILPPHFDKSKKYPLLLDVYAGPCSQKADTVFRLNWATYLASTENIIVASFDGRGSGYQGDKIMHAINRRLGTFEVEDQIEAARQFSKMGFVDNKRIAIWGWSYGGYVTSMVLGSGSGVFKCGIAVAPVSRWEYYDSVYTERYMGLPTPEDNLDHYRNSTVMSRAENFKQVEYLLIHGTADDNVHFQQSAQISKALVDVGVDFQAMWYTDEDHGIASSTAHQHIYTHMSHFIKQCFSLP

[2] = target: human GnRH recombinant receptor (AequoScreen cell line, FAST-0160A) (human) (UniProt P30968); assay: cell-based or functional assay
human GnRH recombinant receptor (AequoScreen cell line, FAST-0160A) (human), sequence (P30968 whole entry): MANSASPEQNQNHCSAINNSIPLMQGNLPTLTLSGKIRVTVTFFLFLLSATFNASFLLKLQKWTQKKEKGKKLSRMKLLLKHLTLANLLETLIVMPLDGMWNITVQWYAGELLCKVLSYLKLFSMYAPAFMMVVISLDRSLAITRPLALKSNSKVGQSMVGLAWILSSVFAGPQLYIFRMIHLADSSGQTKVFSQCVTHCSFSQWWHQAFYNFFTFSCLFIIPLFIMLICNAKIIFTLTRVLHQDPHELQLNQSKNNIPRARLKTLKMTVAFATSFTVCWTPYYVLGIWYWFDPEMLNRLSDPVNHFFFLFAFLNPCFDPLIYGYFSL

[3] = target: T3, Tachykinin NK3 human receptor (human recombinant, CHO cells) (human, UniProt P29371 1-465); assay: radioligand binding, human recombinant NK3 in CHO cells (MDS Pharma assay #255710; printed as assay parameter)
T3 construct: whole, on cells
T3 sequence (looked up): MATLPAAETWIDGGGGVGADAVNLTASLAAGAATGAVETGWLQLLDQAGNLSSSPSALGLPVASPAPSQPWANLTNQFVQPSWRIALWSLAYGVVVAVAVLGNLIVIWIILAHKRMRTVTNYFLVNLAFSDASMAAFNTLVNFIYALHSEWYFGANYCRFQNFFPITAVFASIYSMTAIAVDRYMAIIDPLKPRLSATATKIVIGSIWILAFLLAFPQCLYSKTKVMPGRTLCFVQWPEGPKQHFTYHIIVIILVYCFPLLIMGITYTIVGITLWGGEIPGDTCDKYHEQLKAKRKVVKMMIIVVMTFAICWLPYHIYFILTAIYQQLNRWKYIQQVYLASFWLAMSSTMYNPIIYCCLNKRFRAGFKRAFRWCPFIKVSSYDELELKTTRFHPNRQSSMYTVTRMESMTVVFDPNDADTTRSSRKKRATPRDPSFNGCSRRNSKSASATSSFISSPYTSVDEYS

Molecule: CC(=O)NC1(c2ccccc2)CCN(CC[C@H](CN(C)C(=O)c2ccccc2)c2ccc(Cl)c(Cl)c2)CC1 [[3H] SR-48968]
- Kd [1]: 0.25 nM

Molecule: CCCC[C@H](NC(=O)[C@@H](NC(=O)[C@H](CC(=O)O)NC(=O)[C@H](CCC(N)=O)NC(=O)[C@H](CC(C)C)NC(=O)[C@H](CC(C)C)NC(=O)[C@H](CCCCN)NC(=O)[C@H](CCCNC(=N)N)NC(=O)[C@H](C)NC(=O)[C@H](CO)NC(=O)[C@H](CC(C)C)NC(=O)[C@H](CCC(N)=O)NC(=O)CNC(=O)[C@H](CC(C)C)NC(=O)[C@@H](NC(=O)[C@H](CCCCN)NC(=O)[C@H](CCCNC(=N)N)NC(=O)[C@H](Cc1ccc(O)cc1)NC(=O)[C@H](C)NC(=O)[C@H](C)NC(=O)[C@@H](NC(=O)[C@H](Cc1ccccc1)NC(=O)[C@@H](NC(=O)[C@H](C)NC(=O)[C@H](CC(=O)O)NC(=O)[C@H](C)NC(=O)[C@@H](N)Cc1ccc(O)cc1)[C@@H](C)CC)[C@@H](C)O)C(C)C)[C@@H](C)CC)C(=O)N[C@@H](CO)C(=O)N[C@@H](CCCNC(=N)N)C(N)=O [peptide control] (H-YADAIFTAAYRKVLGQLSARKLLQDI[Nle]SR-NH2)
- DPP-4 peptidase resistance (degradation by HPLC-MS) (DPP-4 peptidase): substantially cleaved

Molecule: [D-Trp6] LHRH (Bachem, H4075) (peptide)
- EC50, aequorin luminescence agonist assay (AequoScreen cells) [2]: 0.14 nM
- EC50, historical value of the same assay [2]: 0.38 nM

Molecule: DMHDFF[NMeF]GLM-NH2 (ends and bridges not checked; also: 125I label, position not given here) [[125I] MePhe7-Neurokinin B]
- Kd [3]: 0.28 nM
